According to patent publication US20080261267A1, “Cellulases from Rumen” (priority 2004, published 2008):

Assays:
[1] = Specific activity of purified endoglucanases; assay type: biochemical; settings: purified to homogeneity; pH 5.6 and 50° C.; CMC as substrate
Procedure: FIG. 2 represents Table 2 which contains the data obtained by purification of endoglucanases of seven clones (pBKRR.1, 9, 11, 13, 14, 16 and 22) with respect to the specific activity. […] They were purified to homogeneity and their specific activity was estimated at pH 5.6 and 50° C., using CMC as substrate.
The endoglucanases were recovered from 1-liter shaked flask fermentations, in Luria-Bertany broth plus 50 μg of Kanamycin per ml. One gram of fermentation broth was mixed with 10 ml of standard buffer in a 50-ml Falcon tube. The solution was vortexed and then incubated with DNase I grade II, for 30-45 min, and then sonicated for 4 min total time. A sample of the soluble fraction was separated from insoluble debris by centrifugation (10,000×g, 30 min, 4° C.) and proteins were precipitated by addition of 80% chilled acetone (−20° C.). Proteins were resuspended in standard buffer and stored at −20° C. at a concentration of 5 mg/ml until use. The amount of protein expression was examined using SDS-PAGE with 10-12% acrylamide. […] The gel region containing the active cellulase, detected in a parallel track by activity staining (using Ostazin brillian-blue carboxymethyl cellulose) was excised, suspended in two volumes of standard fuffer and homogenized in a glass tissue homogenizer. […]
The standard cellulase activity was determined in a continuous spectrophotometric assay by measuring the release of reducing sugars from the 4% (wt/vol carboxymethyl cellulose (CMC) in 0.5-ml reaction mixtures containing 50 mM sodium acetate buffer, pH 5.6, at 40° C., using the dinitrosalycilic acid (DNS) method (Bernfeld, P. (1955) Amilases and b. In: Colowick S P, Kaplan N O (eds). Methods in Enzymology, Academic Press, New York pp. 133-155). The reaction was performed in 0.5 ml scale containing 20 mg substrate and 5 mg lyophilised cells or 0.1 mg purified enzyme. Reactions were allow to proceed for a time period of 5-30 min after which the samples were centrifuge (10,000×g, 3 min). […] Finally, each well was diluted with 150 μl water and the absorbance at 550 nm was measured. […]

[2] = TLC analysis of hydrolysis products; assay type: biochemical; settings: pH 5.6, 50° C.
From the text: FIG. 7 depicts the result of thin layer chromatography TLC analysis of products of CMC hydrolyzed by endoglucanases derived from a rumial genomic DNA library. The methods used for cellulase and substrate preparation, hydrolysis, TLC, and visualization are described in Example 5. The hydrolysis products glucose, cellobiose, cellotriose are shown an the right side. […] Different pattern was found when using short-chain beta-1,4-glucans.
The products formed by hydrolysis of cellulose-based substrates (cellobiose, cellotetraose, cellopentaose, cellulose and carboxymethyl cellulose) were analysed by thin-layer chromatography (TLC). Solutions containing 20 μg of E. coli cell lysate proteins and 0.2% (wt/vol) substrate in 50 mM acetate buffer (pH 5.6) were incubated at 50° C. until maximum conversion was achieved. The reactions were terminated by heating the preparation for 5 min at 95° C. and hydrolysis products were separated by TLC on silica gel plates (Merck, Darmstadt, Germany) by using a mixture chloroform, glacial acetic acid, and water (6:14:1) as the solvent. […] Sugars were visualized by heating 105° C. for 15 min the plates which were previously sprayed with a reagent containing amine (2 ml), diphenylamine (2 g), acetone (100 ml) and 85% H3PO4 (15 ml).

B1: pBKRR.22: rumen endo-beta-1,4-glucanase, sequences FIG. 11/19 (protein)
chain: MLLASFSLFSCGGSDGDDSTPTPSVSLQLVSQSIAEGAQVDAASTTVLTLNYNNPVRVTGNGVTLNGIAVKAKVSGNTSVEIPLTLVEGTVYTLKVAWGAIVAAADGKVVAPEFTLNFTTKGNQQPPIDENSPIAKKMGWGWNLGNHFDTSSGADGVRPQWGYWDNAKPTQVLYNNLRNAGTSTVRIGVTWGNYQNTSNWDIDANYIAEVRQNVEWAEAAGLNVILNMHHDEYWLDIKGAANNSSTNTNIKNRIEKTWKQIAEAFKDKGEFLIFESFNEIQDGGWGWGANRTDGGKQYKTLNEWNQLVVNTIRATGGNNATRWIGIPSYAANPSLALETGFVLPTDAANRLMVSVHFYDPSNFTLSPYVSDDSSEYKSGGYSEWGHTAAKGKADTGSNEDHVVAIFKKLHDKFVAKNIPVYIGEYGCVMHKNTRSNYFRNYYLEYVCRAAHEYGMPLCIWDNNQTGGGNEHHGYFNHTDGQYLNAMESLVKTMIKAATSDDASYTLESVYNKAPK
modifications: Description of sequence sequence derived from genomic DNA library from rumen ecosystem, particularly amino acid sequence of clones pBKRR 22, 6, 8 and 23;(see Figure 19)
specific activity [1]: 68.30 µmol/min/mg | main hydrolysis products of CMC [2]: cellobiose and cellotriose

B2: pBKRR.14: rumen endoglucanase, sequences FIG. 16/24; also capable of hydrolyzing xylan (protein)
chain: MINVLQHHPEVELSVDKTSVSFNRSGGEETFTVTSSTQPHVSADVSWVVVETGKIDKDHHTEVRVLAGANRKEASAGTLTVSCSDKKVSVSVKQEAFVAPSVASTTAVTPQMVFDAMGPGWNMGNHMDAISNGVSGETVWGNPKCTQATMDGVKAAGYKAVRICTTWEGHIGAAPAYALEQKWLDRVAEIVGYAEKAGLVAIVNTHHDESYWQDISKCYNNAANHEKVKDEVFSVWTQIAEKFKDKGEWLVFESFNEIQDGGWGWSDAFRKNPDAQYKVLNEWNQTFVDAVRSTGGQNATRWLGIPGYACNPGFTIAGLVLPKDYTTANRLMVAVHDYDPYDYTLKDPLIRQWGHTADADKRPSGDNEKAVVDVFNNLKAAYLDKGIPVYLGEMGCSRHTAADFPYQKYYMEYFCKAAADRLLPMYLWDNGAKGVGSERHAYIDHGTGQFVDEDARTLVGLMVKAVTTKDASYTLESVYNSAP
modifications: Description of sequence sequence derived from genomic DNA library from rumen ecosystem, particularly amino acid sequence of clones pBKRR 14 and 20-1; RR14=RR20-1;(see Figure 24)
notes: also capable of hydrolyzing xylan
specific activity [1]: 34.60 µmol/min/mg | main hydrolysis products of CMC [2]: cellobiose and cellotriose
